Results: US20230147962A1, “FIBROBLAST ACTIVATION PROTEIN LIGANDS FOR TARGETED DELIVERY APPLICATIONS” (PHILOCHEM AG, priority 2020, published 2023)

Key:
[1] = tested on: SK-RC-52.hFAP and SK-RC-52.wt xenografts; test: Ex vivo targeting experiment, SK-RC-52.hFAP and SK-RC-52.wt xenografts; format: in vivo, BALB/C nu/nu mice; conditions: 40 nmol intravenous, ex vivo organ images 1 h
Protocol: (§1) SK-RC-52.hFAP, HT-1080.hFAP, SK-RC-52.wt cells were grown to 80% confluence and detached with Trypsin-EDTA 0.05%. Cells were re-suspended in HBSS medium to a final concentration of 5×10^7 cells/mL. […] SK-MEL-187 cells were grown to 80% confluence and detached with Trypsin-EDTA 0.05%. Cells were re-suspended in a 1:1 mixture of HBSS:Matrigel to a final concentration of 10×10^7 cells/mL.
(§2) Mice bearing subcutaneous SK-RC-52.hFAP or HT-1080.hFAP tumors on the right flank and SK-RC-52.wt tumor on the left flank were injected intravenously with conjugate 30 (40 nmol in sterile PBS, pH 7.4). […] Cryostat sections ([…]) were cut and nuclei were stained with Fluorescence Mounting Medium (Dako Omnis, Agilent). Images were obtained using an Axioskop2 mot plus microscope (Zeiss) and analyzed by ImageJ 1.53 software.

[2] = tested on: HT-1080.hFAP and SK-RC-52.wt xenografts; test: Ex vivo targeting experiment, HT-1080.hFAP and SK-RC-52.wt xenografts; format: in vivo, BALB/C nu/nu mice; conditions: 40 nmol intravenous, ex vivo organ images 1 h
Protocol: as §1, §2

SK-MEL-187 tumour = conditions: 250 nmol/kg daily for 7 consecutive days
Protocol: SK-MEL-187 xenografted tumours were implanted into female athymic BALB/C nu/nu mice (6-8 weeks of age) as described above, and allowed to grow to an average volume of 0.1 mL. Mice were randomly assigned into therapy groups of 3 animals. […] Tumours were measured with an electronic caliper and animals were weighted daily. Tumour volume (mm^3) was calculated with the formula (long side, mm)×(short side, mm)×(short side, mm)×0.5 (FIG. 8). Prism 6 software (GraphPad Software) was used for data analysis (regular two-way ANOVA followed by Bonferroni test).

[3] = tested on: SK-RC-52.hFAP and SK-RC-52.wt tumours; conditions: 250 nmol/kg, 6 hours after intravenous administration
Protocol: (§3) SK-RC-52.hFAP (right flank) and SK-RC-52.wt (left flank) xenografted tumors were implanted into female athymic BALB/C nu/nu mice (6-8 weeks of age) as described above, and allowed to grow to an average volume of 0.1 mL.
(§4) Frozen organs were cutted with a scalpel (50 mg), and suspended in 600 μL of 95:5 Acetonitrile/water (0.1% TFA). A solution of D8-MMAE in 3:97 Acetonitrile/water (0.1% FA; internal standard, 50 μL, 50 nM) was added. The samples were mechanically lysed with a Tissue Lyser II (Qiagen, 30 Hz shaking, 15 minutes). Plasma samples (50 μL) were added with a solution of D8-MMAE in 3:97 Acetonitrile/water (0.1% FA; internal standard, 50 μL, 50 nM) and proteins were precipitated by addition of 600 μL of 95:5 Acetonitrile/water (0.1% TFA). Proteins from both organs and plasma samples were pelleted by centrifugation and supernatants were dried with a vacuum centrifuge. Solid remanences were resuspended in 1 mL of 3:97 Acetonitrile/water (0.1% TFA) and solutions were cleaned up through a first purification step on HBL Oasis columns and a second purification on C18 Macro Spin Columns. Purified dried eluates were resuspended in 150 μL of 3:97 Acetonitrile/water (0.1% FA) and analyzed by MS. All samples were analysed by liquid chromatography-tandem mass spectrometry (LC-MS/MS) using a Q Exactive Mass Spectrometer fitted with an EASY-nLC 1000 (both Thermo Fisher Scientific). Analytes were resolved with an Acclaim PepMap RSLC C18, 50 m×150 mm, 2 m analytical column (Thermo Fisher Scientific) at a flow rate of 0.3 It/min by running a linear gradient from 3% to 50% ACN over 60 min. All buffers contained 0.1% formic acid. MS spectra were recorded in SIM scan mode with a resolution of 70000 and a maximum injection time of 100 ms. MS/MS were recorded at a resolution of 35000 and a maximum injection time of 250 ms.
(§5) Raw files were then analysed with the Skyline software. MS1 areas of the two ions were used for quantification.

in vivo = conditions: female, BALB/C nu/nu, mouse, iv, 250 nmol/kg
Protocol: as §3, §4, §5

SK-RC-52.hFAP tumour = test: Therapy experiment in SK-RC-52.hFAP tumour bearing mice; conditions: 500 nmol/kg intravenously from day 8 for 6 consecutive days
Protocol: SK-RC-52.hFAP xenografted tumors were implanted into female athymic BALB/C nu/nu mice (6-8 weeks of age) as described above, and allowed to grow to an average volume of 0.1 mL.
Mice were randomly assigned into 8 therapy groups of 4 animals each (5 single-agent groups, 2 combination groups and vehicle group). […] L19-IL2 was diluted at 330 μg/mL in the appropriate formulation buffer and intravenously administered at the dose of 2.5 mg/kg.
Mice in single-agent groups received daily injections of ESV6-ValCit-MMAE, QCOOH-ValCit-MMAE or L 19-IL2.
Mice in combination groups received daily injections of ESV6-ValCit-MMAE on day 8,10 and 12 after tumor implantation, and of L 19-IL2 on day 9,11 and 13 after tumor implantation.
Tumors were measured with an electronic caliper and animals were weighted daily. Tumor volume (mm^3) was calculated with the formula (long side, mm)×(short side, mm)×(short side, mm)×0.5.
Prism 6 software (GraphPad Software) was used for data analysis (regular two-way ANOVA followed by Bonferroni test).

N#C[C@@H]1CC(F)(F)CN1C(=O)CNC(=O)c1ccnc2c(NC(=O)CCC(=O)N[C@@H](CC(=O)O)C(=O)N[C@@H](CCCCN)C(=O)N[C@@H](CC(=O)O)C(=O)N[C@@H](CSC3CC(=O)N(CCCCCNC(=O)c4ccc5c(c4)C(=O)OC54c5ccc(N)c(S(=O)(=O)O)c5Oc5c4ccc(N)c5S(=O)(=O)O)C3=O)C(=O)O)cccc12 (stereo in doubt) [conjugate 30, ESV6-Alexa Fluor 488]
targeting performance, SK-RC-52.hFAP and SK-RC-52.wt xenografts [1]: localises rapidly, homogeneously and selectively in vivo at the tumour which presents FAP expression 1 hour after the intravenous injection, with an excellent tumour-to-organs selectivity
targeting performance, HT-1080.hFAP and SK-RC-52.wt xenografts [2]: rapidly, homogeneously and selectively localizes in vivo at the tumour which presents FAP expression 1 hour after the intravenous injection, with an excellent tumour-to-organs selectivity

CC[C@H](C)[C@@H]([C@@H](CC(=O)N1CCC[C@H]1[C@H](OC)[C@@H](C)C(=O)N[C@H](C)[C@@H](O)c1ccccc1)OC)N(C)C(=O)[C@@H](NC(=O)[C@H](C(C)C)N(C)C(=O)OCc1ccc(NC(=O)[C@H](CCCNC(N)=O)NC(=O)[C@@H](NC(=O)CCCCCN2C(=O)CC(SC[C@H](NC(=O)[C@H](CC(=O)O)NC(=O)[C@H](CCCCN)NC(=O)[C@H](CC(=O)O)NC(=O)CCC(=O)Nc3cccc4c(C(=O)NCC(=O)N5CC(F)(F)C[C@H]5C#N)ccnc34)C(=O)O)C2=O)C(C)C)cc1)C(C)C (stereo partly shown) [ESV6-ValCit-MMAE]
anti-tumour effect (mean tumour volume) (SK-MEL-187 tumour): more potent anti-tumour effect as compared with HABERKORN-ValCit-MMAE
tolerability (changes in body weight), acute toxicity (SK-MEL-187 tumour): lower acute toxicity as compared to HABERKORN-ValCit-MMAE
accumulation in FAP-negative SK-RC-52 wild type tumours [3]: does not accumulate in FAP-negative SK-RC-52 wild type tumours
uptake at the tumour site (FAP-positive SK-RC-52) [3]: 18 % ID/g
uptake in healthy organs [3]: lower than 1 % ID/g
tissue uptake at 6 h (in vivo; SK-RC-52.hFAP tumour (FAP-positive)): 18 %ID/g
tissue uptake at 6 h (in vivo; healthy organs): < 1 %ID/g
anti-tumour effect (mean tumour volume) (SK-RC-52.hFAP tumour): more potent anti-tumour effect as compared with QCOOH-ValCit-MMAE
